Source: PMC10486284

Target: T1, Human TIGIT extracellular domain, C-terminal hexahistidine and AviTag (human), Q495A1
T1 chain: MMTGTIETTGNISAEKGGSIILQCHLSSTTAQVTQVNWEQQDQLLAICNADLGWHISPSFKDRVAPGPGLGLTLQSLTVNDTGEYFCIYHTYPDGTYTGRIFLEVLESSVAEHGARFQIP
Experiment: SEC-MALS
Settings: remark: other sources report otherwise

B1: Human CD112 extracellular domain, C-terminal hexahistidine, Q92692 32-360 (ligand)
chain: QDVRVQVLPEVRGQLGGTVELPCHLLPPVPGLYISLVTWQRPDAPANHQNVAAFHPKMGPSFPSPKPGSERLSFVSAKQSTGQDTEAELQDATLALHGLTVEDEGNYTCEFATFPKGSVRGMTWLRVIAKPKNQAEAQKVTFSQDPTTVALCISKEGRPPARISWLSSLDWEAKETQVSGTLAGTVTVTSRFTLVPSGRADGVTVTCKVEHESFEEPALIPVTLSVRYPPEVSISGYDDNWYLGRTDATLSCDVRSNPEPTGYDWSTTSGTFPTSAVAQGSQLVIHAVDSLFNTTFVCTVTNAVGMGRAEQVIFVRETPNTAGAGATGG
modifications: here or on the partner: biotin on the BirA biotinylation tag (BLI and ProteOn SPR)
stoichiometry N: 1
